T1: human HER4-Fc (human, UniProt Q15303 26-651)
T1 construct: Bought protein; also called HER4-Fc antigen; not shown: Fc part of the bought fusion protein, not described
T1 sequence: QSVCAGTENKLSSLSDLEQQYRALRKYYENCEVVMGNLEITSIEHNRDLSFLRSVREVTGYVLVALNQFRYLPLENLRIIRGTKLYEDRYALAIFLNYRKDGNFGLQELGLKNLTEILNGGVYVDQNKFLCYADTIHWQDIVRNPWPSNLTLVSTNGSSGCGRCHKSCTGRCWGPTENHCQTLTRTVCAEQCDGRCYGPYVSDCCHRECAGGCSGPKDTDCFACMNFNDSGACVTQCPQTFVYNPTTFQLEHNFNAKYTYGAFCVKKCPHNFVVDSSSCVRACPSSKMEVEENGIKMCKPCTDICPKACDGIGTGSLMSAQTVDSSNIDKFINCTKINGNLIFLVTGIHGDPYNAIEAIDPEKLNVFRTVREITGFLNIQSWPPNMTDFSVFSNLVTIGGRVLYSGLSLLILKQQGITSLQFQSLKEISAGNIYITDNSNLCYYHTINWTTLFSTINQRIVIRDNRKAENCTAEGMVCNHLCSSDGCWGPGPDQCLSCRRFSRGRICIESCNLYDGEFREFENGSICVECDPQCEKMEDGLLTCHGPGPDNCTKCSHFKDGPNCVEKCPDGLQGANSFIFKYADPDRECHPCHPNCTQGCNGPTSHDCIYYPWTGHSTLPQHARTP


Assays:
human HER4-Fc [1] = target: T1, human HER4-Fc; test: ELISA, human HER4-Fc coated, concentration giving 50% absorbance
Procedure: (§1) Ninety six-well enzyme immunoassay plates (Nunc Maxisorp) were coated overnight at 4° C. with HER4-Fc antigen at a concentration of 250 ng/ml in PBS pH 7.4. After four washes in PBS, containing 0.1% Tween 20 (PBS-T), plates were saturated with a 2% solution of bovine serum albumin (BSA) in PBS-T buffer for 2 h at 37° C. Two-fold or ten-fold serial dilutions of purified HER4-specific mAbs were added after four washes in PBS-T and plates were incubated at 37° C. for 2 h. Following four washes in PBS-T, 100 μl of a peroxidase-conjugated goat anti-human F(ab′)2 antibody (Jackson Immunoresearch) were added to each well. The conjugate was used at a 1:5000 dilution in PBS-T-2% BSA. The plates were incubated at 37° C. for 1 h and then washed three times in PBS-T and once in PBS. Finally a Tetramethylbenzidine solution (Sigma) was added for 30 min at ambient temperature in the dark. The reaction was stopped by adding 50 μl/well 1M […] and the absorbance was measured at 450 nm. […] HER4-specific antibodies D5 and C6, giving 50%-absorbance at concentration of 20 ng/ml and 100 ng/ml respectively, on human HER4-Fc, are more efficient for binding than F4 and H2, which gave a 50%-absorbance at concentration around 1-5 μg/ml (FIG. 1).

HER2 receptor = target: T2, HER2 receptor (UniProt P04626 23-652, limits assumed); test: ELISA
T2 construct: also called Neu; ErbB2

EGFR receptor = target: T3, EGFR receptor (UniProt P00533 25-645, limits assumed); test: ELISA
T3 construct: also called Her1; ErbB1

HER3 receptor = target: T4, HER3 receptor (UniProt P21860 20-643, limits assumed); test: ELISA
T4 construct: also called ErbB3
T4 sequence (P21860 20-643 limits assumed): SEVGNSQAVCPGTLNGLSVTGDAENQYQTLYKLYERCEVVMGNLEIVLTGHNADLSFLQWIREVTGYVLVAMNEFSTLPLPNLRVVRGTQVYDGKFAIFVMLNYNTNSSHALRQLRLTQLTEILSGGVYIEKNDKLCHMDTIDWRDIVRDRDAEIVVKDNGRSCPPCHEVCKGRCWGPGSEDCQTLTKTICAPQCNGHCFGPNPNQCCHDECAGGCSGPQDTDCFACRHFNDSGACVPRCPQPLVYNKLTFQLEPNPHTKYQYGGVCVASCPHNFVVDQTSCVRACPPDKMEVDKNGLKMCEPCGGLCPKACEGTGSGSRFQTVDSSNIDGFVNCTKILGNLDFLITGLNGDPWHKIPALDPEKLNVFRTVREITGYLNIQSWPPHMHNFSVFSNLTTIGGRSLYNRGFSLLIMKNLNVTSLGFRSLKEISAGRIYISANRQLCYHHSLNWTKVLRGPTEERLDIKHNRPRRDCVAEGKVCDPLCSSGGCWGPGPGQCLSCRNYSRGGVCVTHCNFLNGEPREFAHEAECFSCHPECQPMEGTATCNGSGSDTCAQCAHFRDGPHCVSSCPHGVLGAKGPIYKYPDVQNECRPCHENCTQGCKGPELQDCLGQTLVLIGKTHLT

human HER4-Fc [2] = target: T1, human HER4-Fc; test: ELISA, HER4-Fc coated at 250 ng/ml, IgG in solution
Procedure: as §1

EC50 (human HER4-Fc [1]) | binding result (HER2 receptor) | binding result (EGFR receptor) | binding result (HER3 receptor) | binding result (human HER4-Fc [2]) | Binder
0.1 µg/mL | no binding | no binding | no binding | – | C6 mAb (antibody, V domains shown, also called antibody C6; Ab C6) VH: EVQLVESGGSLVKPGGSLRLSCAASGFTFSNYYMNWVRQAPGKGLEWISSISGSSRYIDYADFVKGRFTISRDNATNSLYLQMNSLRAEDTAVYYCVRSSSDYFGGGMDVWGRGTLVTVSS VL: QSVLTQPASVSGSPGQSITISCAGTSSDVGGSYYVSWYQQHPGKAPKLMIYYDSYRPSGVSNRFSGSKSGNTASLTISGLQAEDEADYYCSSSTYNSTRVFGGGTKLAVLG
– | no binding | no binding | no binding | binds | F4 mAb (antibody, V domains shown, also called antibody F4) VH: EVQLVESGGSLVKPGGSLRLSCAASGFTFSNNDMNWVRQAPGKGLEWISSISGSSRYINYADFVKGRFTISRDNATNSLYLQMNSLRAEDTAVYYCVRSSDDYFGGGMDVWGRGTLVTVSS VL: QSVLTQPASVSGSPGQSITISCAGTSSDVGGYSGVSWYQQHPGKAPKLMIYNDSYRPSGVSNRFSGSKSGNTASLTISGLQAEDEADYYCSSYTNNSTRVFGGGTKLAVLG
0.02 µg/mL | no binding | no binding | no binding | – | D5 mAb (antibody, V domains shown, also called antibody D5; anti-HER4 antibody D5) VH: EVQLVESGGSLVKPGGSLRLSCAASGFTFSNYYMNWVRQAPGKGLEWISSIDGSSRYIDYADFVKGRFTISRDNATNSLYLQMNSLRAEDTAVYYCVRSSSDYFGGGMDVWGRGTLVTVSS VL: QSVLTQPASVSGSPGQSITISCAGTSSDVGGSSYVSWYQQHPGKAPKLMIYYDSYRPSGVSNRFSGSKSGNTASLTISGLQAEDEADYYCSSNTYYSTRVFGGGTKLAVLG
– | no binding | no binding | no binding | binds | H2 mAb (antibody, V domains shown, also called antibody H2) VH: EVQLVESGGSLVKPGGSLRLSCAASGFTFSNNDMNWVRQAPGKGLEWISDINGSSRYIYYADFVKGRFTISRDNATNSLYLQMNSLRAEDTAVYYCVRSSDDYFGGGMDVWGRGTLVTVSS VL: QSVLTQPASVSGSPGQSITISCAGTSSDVGGYYSVSWYQQHPGKAPKLMIYNDSYRPSGVSNRFSGSKSGNTASLTISGLQAEDEADYYCSSSTYYSTRVFGGGTKLAVLG

From patent US20230040928A1 (INSERM INSTITUT NATIONAL DE LA SANTE ET DE LA RECHERCHE …, published 2023)
